From PMC8263624, “Asymmetric reconstruction of mammalian reovirus reveals interactions among RNA, transcriptional factor µ2 and capsid proteins” (Nature Communications, 2021)

T1: capsid shell protein (CSP) λ1 (Mammalian reovirus serotype Dearing 3, UniProt P15024 1-1275)
T1 construct: capsid shell protein λ1 of mammalian reovirus serotype Dearing 3, native in the virus particle; 120 copies in each particle as λ1A/λ1B dimers; five pairs (1-5) around each vertex; also called λ1A; λ1B
T1 sequence: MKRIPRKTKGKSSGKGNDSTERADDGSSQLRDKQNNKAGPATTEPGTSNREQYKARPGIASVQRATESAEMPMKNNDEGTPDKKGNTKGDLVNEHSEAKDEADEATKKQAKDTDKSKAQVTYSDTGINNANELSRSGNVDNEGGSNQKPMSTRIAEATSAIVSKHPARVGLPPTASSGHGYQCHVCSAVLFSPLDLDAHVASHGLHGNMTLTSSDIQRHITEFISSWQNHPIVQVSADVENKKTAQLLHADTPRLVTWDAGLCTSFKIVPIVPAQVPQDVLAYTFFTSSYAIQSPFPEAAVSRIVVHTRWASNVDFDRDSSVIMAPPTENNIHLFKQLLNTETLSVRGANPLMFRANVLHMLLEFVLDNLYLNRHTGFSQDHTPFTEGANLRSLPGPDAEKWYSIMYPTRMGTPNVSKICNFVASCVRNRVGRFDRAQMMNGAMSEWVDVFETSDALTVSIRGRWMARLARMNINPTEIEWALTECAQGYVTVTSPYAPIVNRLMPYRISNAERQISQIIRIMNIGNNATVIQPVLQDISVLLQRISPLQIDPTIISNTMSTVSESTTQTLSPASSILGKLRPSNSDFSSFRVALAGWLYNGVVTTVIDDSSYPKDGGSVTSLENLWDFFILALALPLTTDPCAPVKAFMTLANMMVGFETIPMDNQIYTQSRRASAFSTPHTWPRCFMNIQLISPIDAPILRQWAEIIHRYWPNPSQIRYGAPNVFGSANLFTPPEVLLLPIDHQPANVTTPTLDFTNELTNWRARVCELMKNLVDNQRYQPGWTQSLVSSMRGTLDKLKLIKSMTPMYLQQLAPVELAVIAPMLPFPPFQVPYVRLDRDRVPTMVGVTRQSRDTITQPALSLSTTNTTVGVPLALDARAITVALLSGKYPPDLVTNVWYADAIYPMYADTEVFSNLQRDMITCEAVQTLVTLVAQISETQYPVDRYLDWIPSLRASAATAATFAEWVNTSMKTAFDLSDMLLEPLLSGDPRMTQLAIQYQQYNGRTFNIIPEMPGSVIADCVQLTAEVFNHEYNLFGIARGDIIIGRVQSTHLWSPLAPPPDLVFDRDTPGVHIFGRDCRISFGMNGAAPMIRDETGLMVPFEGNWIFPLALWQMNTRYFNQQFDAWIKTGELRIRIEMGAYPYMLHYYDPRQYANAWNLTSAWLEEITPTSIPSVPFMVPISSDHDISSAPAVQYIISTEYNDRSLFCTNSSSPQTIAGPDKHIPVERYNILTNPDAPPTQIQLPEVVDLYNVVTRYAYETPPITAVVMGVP

B1: RNA-dependent RNA polymerase (RdRp) λ3 (enzyme)
chain: MSSMILTQFGPFIESISGITDQSNDVFEDAAKAFSMFTRSDVYKALDEIPFSDDAMLPIPPTIYTKPSHDSYYYIDALNRVRRKTYQGPDDVYVPNCSIVELLEPHETLTSYGRLSEAIENRAKDGDSQARIATTYGRIAESQARQIKAPLEKFVLALLVAEAGGSLYDPVLQKYDEIPDLSHNCPLWCFREICRHISGPLPDRAPYLYLSAGVFWLMSPRMTSAIPPLLSDLVNLAILQQTAGLDPSLVKLGVQICLHAAASSSYSWFILKTKSIFPQNTLHSMYESLEGGYCPNLEWLEPRSDYKFMYMGVMPLSAKYARSAPSNDKKARELGEKYGLSSVVGELRKRTKTYVKHDFASVRYIRDAMACTSGIFLVRTPTETVLQEYTQSPEIKVPIPQKDWTGPIGEIRILKDTTSSIARYLYRTWYLAAARMAAQPRTWDPLFQAIMRSQYVTARGGSGAALRESLYAINVSLPDFKGLPVKAATKIFQAAQLANLPFSHTSVAILADTSMGLRNQVQRRPRSIMPLNVPQQQVSAPHTLTADYINYHMNLSPTSGSAVIEKVIPLGVYASSPPNQSINIDISACDASITWDFFLSVIMAAIHEGVASSSIGKPFMGVPASIVNDESVVGVRAARPISGMQNMIQHLSKLYKRGFSYRVNDSFSPGNDFTHMTTTFPSGSTATSTEHTANNSTMMETFLTVWGPEHTDDPDVLRLMKSLTIQRNYVCQGDDGLMIIDGTTAGKVNSETIQNDLELISKYGEEFGWKYDIAYDGTAEYLKLYFIFGCRIPNLSRHPIVGKERANSSAEEPWPAILDQIMGVFFNGVHDGLQWQRWIRYSWALCCAFSRQRTMIGESVGYLQYPMWSFVYWGLPLVKAFGSDPWIFSWYMPTGDLGMYSWISLIRPLMTRWMVANGYVTDRCSTVFGNADYRRCFNELKLYQGYYMAQLPRNPKKSGRAASREVREQFTQALSDYLMQNPELKSRVLRGRSEWEKYGAGIIHNPPSLFDVPHKWYQGAQEAAIATREELAEMDETLMRARRHSYSSFSKLLEAYLLVKWRMCEAREPSVDLRLPLCAGIDPLNSDPFLKMVSVGPMLQSTRKYFAQTLFMAKTVSGLDVNAIDSALLRLRTLGADKKALTAQLLMVGLQESEADALAGKIMLQDVNTVQLARVVNLAVPDTWMSLDFDSMFKHHVKLLPKDGRHLNTDIPPRMGWLRAILRFLGAGMVMTATGVAVDIYLEDIHGGGRSLGQRFMTWMRQEGRSA
notes: RdRp λ3 of mammalian reovirus serotype Dearing 3, native in the virus particle; domains stated as residues 1-386, 387-556 and 595-690, 557-594 and 691-792, 793-901, 902-1267; Part of the transcribing enzyme complex (TEC) with µ2; ten TECs in each particle
B2: RdRp-bound nucleoside triphosphatase μ2 (enzyme)
chain: MAYIAVPAVVDSRSSEAIGLLESFGVDAGADANDVSYQDHDYVLDQLQYMLDGYEAGDVIDALVHKNWLHHSVYCLLPPKSQLLEYWKSNPSAIPDNVDRRLRKRLMLKKDLRKDDEYNQLARAFKISDVYAPLISSTTSPMTMIQNLNRGEIVYTTTDRVIGARILLYAPRKYYASTLSFTMTKCIIPFGKEVGRVPHSRFNVGTFPSIATPKCFVMSGVDIESIPNEFIKLFYQRVKSVHANILNDISPQIVSDMINRKRLRVHTPSDRRAAQLMHLPYHVKRGASHVDVYKVDVVDMLFEVVDVADGLRNVSRKLTMHTVPVCILEMLGIEIADYCIRQEDGMLTDWFLLLTMLSDGLTDRRTHCQYLMNPSSVPPDVILNISITGFINRHTIDVMPDIYDFVKPIGAVLPKGSFKSTIMRVLDSISILGIQIMPRAHVVDSDEVGEQMEPTFEQAVMEIYKGIAGVDSLDDLIKWVLNSDLIPHDDRLGQLFQAFLPLAKDLLAPMARKFYDNSMSEGRLLTFAHADSELLNANYFGHLLRLKIPYITEVNLMIRKNREGGELFQLVLSYLYKMYATSAQPKWFGSLLRLLICPWLHMEKLIGEADPASTSAEIGWHIPREQLMQDGWCGCEDGFIPYVSIRAPRLVIEELMEKNWGQYHAQVIVTDQLVVGEPRRVSAKAVIKGNHLPVKLVSRFACFTLTAKYEMRLSCGHSTGRGAAYSARLAFRSDLA
notes: NTPase μ2 of mammalian reovirus serotype Dearing 3, native in the virus particle; 736 residues in all, 680 modelled; RBD 1-264, NTPase domain 265-607, CTD 608-736; also called NTPase; NTPase μ2

Key:
[1] = target: T1, capsid shell protein (CSP) λ1; assay: cryo-EM structure; asymmetric (C1) vertex sub-particle reconstructions of native MRV ISVP at 3.3 Å, asymmetric full ISVP at 4.3 Å; isolated virus particles in PBS pH 7.4; proteins assembled in the particle, in situ; settings: both partners purified
[2] = target: B1; assay: as above; settings: both partners purified

| Binder | binding result [1] | binding result [2] |
| --- | --- | --- |
| B1 | binds |  |
| B2 | binds | binds |
